# Where no end group is shown, it is not given here. [ ]: non-standard residue; d: D form. pT = C[C@@H](OP(=O)(O)O)[C@H](N)C(=O)O; pS = N[C@@H](COP(=O)(O)O)C(=O)O
# How the values were obtained:
# [1] = target: βarr1 (Homo sapiens, UniProt P49407, A12C/C125S/C140L/C150V/C242V/C251V/C269S/C59V/V387C); experiment: smFRET imaging of surface-tethered βarr1–12-387-AF488-AT647N C-tail sensor; format: biochemical; details: parent sensor, 100 μM PIP2
# [2] = target: 3Q βarr1 (Homo sapiens, UniProt P49407, C125S/C140L/C150V/C242V/C251V/C269S/C59V/K232Q/K250Q/R236Q); experiment: Fluorescence polarization binding of BODIPY-PIP2 to 3Q βarr1; details: FP with a BODIPY-derivative of PIP2
# [3] = target: βarr1–12-387-AF488-AT647N (cysteine-free human β-arrestin 1 C-tail sensor with cysteines at positions 12 and 387) (human) (UniProt P49407); experiment: other fluorescence titration
# [4] = target: βarr1–12-387-AF488-AT647N (cysteine-free human β-arrestin 1 C-tail sensor with cysteines at positions 12 and 387) (human) (UniProt P49407); experiment: single-molecule FRET
# [5] = target: 3A βarr1 (F388A/V387C/I386A triple mutant of the βarr1–12-387 C-tail sensor) (human) (UniProt P49407); experiment: single-molecule FRET
# [6] = target: βarr1–12-387-AF488-AT647N (cysteine-free human β-arrestin 1 C-tail sensor with cysteines at positions 12 and 387) (human) (UniProt P49407); experiment: single-molecule FRET; remark: listed apart in the source
# [7] = target: βarr1–12-398-AF488-AT647 (human) (UniProt P49407)
molecule,measurement,setting,value
"phosphatidylinositol 4,5-bisphosphate [PIP2]",mid-FRET dwell time representing the PIP2-bound state,[1],~2 s
same,binding of PIP2 to βarr1 3Q,[2],essentially lost binding
"ARGRTPPSLGPQDESCT[pT]A[pS][pS][pS]LAKDTSS [P56, V2Rpp-derived phosphopeptide lacking four N-terminal phosphorylation sites]",EC50,[3],30 µM
ARGR[pT]PP[pS]LGPQDE[pS]C[pT][pT]A[pS][pS][pS]LAKDTSS,EC50,[4],11.6 µM
same,EC50,[5],0.4 µM
same,EC50,[6],11.8 µM
same,EC50,[3],1.5 µM
same,EC50,[7],0.75 µM

# — publication PMC12157425 (bioRxiv, 2025)
